# Experimental data as given in article PMC8013792, “Bacterial protein domains with a novel Ig‐like fold target human CEACAM receptors” (The EMBO Journal, 2021).
# B1: recombinant CEACAM1 N-terminal domain, unglycosylated, 6xHis tagged [human] / IgSF (IgI3) domain of β protein, recombinant, biotinylated [modified: biotin, C-terminal] [Streptococcus agalactiae (GBS)] (parent complex)
# chain 1: MAQLTTESMPFNVAEGKEVLLLVHNLPQQLFGYSWYKGERVDGNRQIVGYAIGTQQATPGPANSGRETIYPNASLLIQNVTQNDTGFYTLQVIKSDLVNEEATGQFHVY
# chain 2: ANENNQQKIELTVSPENITVYEGEDVKFTVTAKSDSKTTLDFSDLLTKYNPSVSDRISTNYKTNTDNHKIAEITIKNLKLNESQTVTLKAKDDSGNVVEKTFTITVQKKEEKQLPSTGGS
# B2: IgSF (IgI3) domain of β protein, recombinant, biotinylated [modified: biotin, C-terminal] [Streptococcus agalactiae (GBS)] / recombinant CEACAM1 N-terminal domain, unglycosylated, 6xHis tagged [human] (parent complex)
# chain 1: B1 chain 2
# chain 2: B1 chain 1
# Variants of: B1
# Experiment: flow cytometry on coated dynabeads; parent: 390; read off a plot
row,Variant,response [Geometric MFI]
1,chain 2 ANENNQQKIELTVSPENITVYEGEDVKFTVTAKSDSKTTLDFSDLLTKYNPSASDRISTNYKTNTDNHKIAEITIKNLKLNESQTVTLKAKDDSGNVVEKTFTITVQKKEEKQLPSTGGS [chain 2 V53A],~280
2,chain 2 ANENNQQKIELTVSPENITVYEGEDVKFTVTAKSDSKTTLDFSDLLTKYNPSVSARISTNYKTNTDNHKIAEITIKNLKLNESQTVTLKAKDDSGNVVEKTFTITVQKKEEKQLPSTGGS [chain 2 D55A],~340
3,chain 2 ANENNQQKIELTVSPENITVYEGEDVKFTVTAKSDSKTTLDASDLLTKYNPSVSDRISTNYKTNTDNHKIAEITIKNLKLNESQTVTLKAKDDSGNVVEKTFTITVQKKEEKQLPSTGGS [chain 2 F42A],~750
4,chain 2 ANENNQQKIELTVSPENITVYEGEDVKFTVTAKSDSKTTLDFSDLATKYNPSVSDRISTNYKTNTDNHKIAEITIKNLKLNESQTVTLKAKDDSGNVVEKTFTITVQKKEEKQLPSTGGS [chain 2 L46A],~200

# Variants of: B2
# Experiment: flow cytometry on coated dynabeads; parent: 800; read off a plot
row,Variant,response [Geometric MFI]
1,chain 2 MAQLTTESMPFNVAEGKEVLLLVHNLPQQLFGYSWYKGERVDGNRQIVGYAIGTQQATPGPANSGRETIYPNASLLIQNVTQNDTGFYTLAVIKSDLVNEEATGQFHVY [chain 2 Q91A],~230
2,chain 2 MAQLTTESMPFNVAEGKEVLLLVHNLPQQLFGYSWYKGERVDGNRQIVGYAIGTQQATPGPANSGRETIYPNASLLIQNVTQNDTGFYTLQVIKSDAVNEEATGQFHVY [chain 2 L97A],~450
3,chain 2 MAQLTTESMPFNVAEGKEVLLLVHNLPQQLFGYSWYKGERVDGNRAIVGYAIGTQQATPGPANSGRETIYPNASLLIQNVTQNDTGFYTLQVIKSDLVNEEATGQFHVY [chain 2 Q46A],~510
4,chain 2 MAQLTTESMPFNVAEGKEVLLLVHNLPQQLAGYSWYKGERVDGNRQIVGYAIGTQQATPGPANSGRETIYPNASLLIQNVTQNDTGFYTLQVIKSDLVNEEATGQFHVY [chain 2 F31A],~390
5,chain 2 MAQLTTESMPFNVAEGKEVLLLVHNLPQQLFGYSWYKGERVDGNRQIVGYAIGTQQATPGPANSGRETIYPNASLLIQNVTQNDTGFYTLQVIKSDLANEEATGQFHVY [chain 2 V98A],~590
6,chain 2 MAQLTTESMPFNVAEGKEVLLLVHNLPQQLFGYSWYKGERVDGNRQIVGYAIGTQQATPGPANSGRETIYPNASLLIQNVTQNDTGFYTLQVAKSDLVNEEATGQFHVY [chain 2 I93A],~240
7,chain 2 MAQLTTESMPFNVAEGKEVLLLVHNLPQQLFGYSWYKGERVDGNRQIVGYAIGTQQATPGPANSGRETIYPNASLLIQNVTQNDTGFYTLQVIKSDLVAEEATGQFHVY [chain 2 N99A],~540
